Source: the RNAGym collection of RNA variant scans (doi:10.1073/pnas.2313332121)

B1: TPR t1 (parent)
chain: GACCAAUCUGCCCUCAGAGCUCGAGAACAUCUUCGGAUGCAGAGGAGGCAGGCUUCGGUGGCGCGAUAGCGCCAACGUCCUCAACCUCCAAUGCAUCCCACCACAUGAUGAUGCCUGAAGAGCCUUGGUUUUUUG

Variants of: B1
Experiment: polymerase ribozyme fitness, log enrichment relative to wild type (log ratio); higher = more active; in vitro selection for triplet polymerase activity
In short: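 Only genotypes with ≥10 input reads and ≥1 read per output were kept after Illumina sequencing of input and output libraries. These libraries were PCR-built, transcribed mutants of each subunit of a heterodimeric triplet polymerase ribozyme, each put through one triplicate in vitro selection round with frozen incubation at −7 °C, gel excision of extended constructs, streptavidin-bead capture and RT-PCR. Fitness is a logarithmic ratio of genotype enrichment to wild-type enrichment, from inverse-variance-weighted replicate averages, with the logarithm in base 2.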

Q: With G10C A18U C73G G113C as the variant, how does the “polymerase ribozyme fitness (log ratio)” value read?
A: -5.21

Q: For G10C G60U C82A U96A G107U A119U, which “polymerase ribozyme fitness (log ratio)” value is on record?
A: -6.51

Q: With G10A A29U G69U A83U C114G C123G as the variant, how does the “polymerase ribozyme fitness (log ratio)” value read?
A: -2.26

Q: Which “polymerase ribozyme fitness (log ratio)” value does the source give for G10C A41U A50G here?
A: -1.93

Q: With G10A A83C G128U as the variant, how does the “polymerase ribozyme fitness (log ratio)” value read?
A: -2.33

Q: Which “polymerase ribozyme fitness (log ratio)” value does the source give for G10C C49A G51C G57C C72U C115G here?
A: -3.99

Q: With G10A U131A as the variant, how does the “polymerase ribozyme fitness (log ratio)” value read?
A: -0.339

Q: Which “polymerase ribozyme fitness (log ratio)” value does the source give for G10U A27G here?
A: -0.702

Q: For G10A A41C C53G U133C, which “polymerase ribozyme fitness (log ratio)” value is on record?
A: -1.29

Q: Which “polymerase ribozyme fitness (log ratio)” value does the source give for G10A U116C here?
A: -0.237

Q: With G10A A37C A84C A95G as the variant, how does the “polymerase ribozyme fitness (log ratio)” value read?
A: -0.834

Q: For G10C C13A C82U A83C, which “polymerase ribozyme fitness (log ratio)” value is on record?
A: -0.888

Q: With G10A C40G as the variant, how does the “polymerase ribozyme fitness (log ratio)” value read?
A: -0.282

Q: For G10A C12G C40A C115U A119G G120C U131A, which “polymerase ribozyme fitness (log ratio)” value is on record?
A: -0.621

Q: Which “polymerase ribozyme fitness (log ratio)” value does the source give for G10U A43U C73G A108G here?
A: -6.59

Q: For G10A G19U, which “polymerase ribozyme fitness (log ratio)” value is on record?
A: -3.62

Q: With G10A C11G G71A as the variant, how does the “polymerase ribozyme fitness (log ratio)” value read?
A: -0.829

Q: Which “polymerase ribozyme fitness (log ratio)” value does the source give for G10A A43G here?
A: -1.53

Q: Which “polymerase ribozyme fitness (log ratio)” value does the source give for U9G U92G C115G U132C here?
A: -0.718

Q: For G10C C64U A121U U131A, which “polymerase ribozyme fitness (log ratio)” value is on record?
A: 1.16

Q: With G10A C94A C97U U106A as the variant, how does the “polymerase ribozyme fitness (log ratio)” value read?
A: -0.642

Q: For G10C U38G C85U G122A C123G, which “polymerase ribozyme fitness (log ratio)” value is on record?
A: 0.725

Q: For G10C G61U C114U, which “polymerase ribozyme fitness (log ratio)” value is on record?
A: -1.8

Q: Which “polymerase ribozyme fitness (log ratio)” value does the source give for G10A A29G here?
A: -2.58

Q: With G10C G45A C104A as the variant, how does the “polymerase ribozyme fitness (log ratio)” value read?
A: -2.44

Q: For G10A A41C G61U U92A U133C, which “polymerase ribozyme fitness (log ratio)” value is on record?
A: -0.847

Q: For G10U A43C C76U A90C C115A, which “polymerase ribozyme fitness (log ratio)” value is on record?
A: -2.83

Q: Which “polymerase ribozyme fitness (log ratio)” value does the source give for G10U C11G C62G here?
A: -1.22

Q: For G10A A37U C53A C56G C85U G110U, which “polymerase ribozyme fitness (log ratio)” value is on record?
A: -2.81

Q: With G10C G71U C86U as the variant, how does the “polymerase ribozyme fitness (log ratio)” value read?
A: -1.57

Q: Which “polymerase ribozyme fitness (log ratio)” value does the source give for G10C C40G here?
A: -1.34

Q: Which “polymerase ribozyme fitness (log ratio)” value does the source give for G10U A103U here?
A: -4.38

Q: With G10C A75U C98A U109A G127C as the variant, how does the “polymerase ribozyme fitness (log ratio)” value read?
A: -5.13

Q: Which “polymerase ribozyme fitness (log ratio)” value does the source give for G10A G17C C34A G47U C72G C80U C124A here?
A: -7.1

Q: With G10A G61A A111G as the variant, how does the “polymerase ribozyme fitness (log ratio)” value read?
A: 0.12

Q: With G10A A27G C76U C94A as the variant, how does the “polymerase ribozyme fitness (log ratio)” value read?
A: -5.09

Q: With G10A A29G G113A U130A as the variant, how does the “polymerase ribozyme fitness (log ratio)” value read?
A: -3.73

Q: Which “polymerase ribozyme fitness (log ratio)” value does the source give for G10A C13A A18G here?
A: -6.95

Q: For G10A C70U C79U C82G G120C G128U, which “polymerase ribozyme fitness (log ratio)” value is on record?
A: -2.34

Q: With U9G U21A G127A as the variant, how does the “polymerase ribozyme fitness (log ratio)” value read?
A: -0.983

Q: For G10C C11A U54G A68U U109A G128U, which “polymerase ribozyme fitness (log ratio)” value is on record?
A: -7.09

Q: Which “polymerase ribozyme fitness (log ratio)” value does the source give for G10C C49G U81C G120C here?
A: -4.69

Q: Which “polymerase ribozyme fitness (log ratio)” value does the source give for G10C U109A here?
A: -6.66

Q: Which “polymerase ribozyme fitness (log ratio)” value does the source give for G10A A41C G52U C79U C82G U130G here?
A: -2.72

Q: With G10U C11A C13G G19A G57U A90G A91U as the variant, how does the “polymerase ribozyme fitness (log ratio)” value read?
A: -2.55

Q: Which “polymerase ribozyme fitness (log ratio)” value does the source give for G10C G17U G63A here?
A: -4.45

Q: Which “polymerase ribozyme fitness (log ratio)” value does the source give for G10A G36A C56A A105U U112A here?
A: -3.87

Q: For G10A U38G, which “polymerase ribozyme fitness (log ratio)” value is on record?
A: 0.0174

Q: For G10A C97A G120U, which “polymerase ribozyme fitness (log ratio)” value is on record?
A: -4.42

Q: For G10A A74G A119U, which “polymerase ribozyme fitness (log ratio)” value is on record?
A: -0.71

Q: Which “polymerase ribozyme fitness (log ratio)” value does the source give for U9G U59C C101U here?
A: -0.449

Q: Which “polymerase ribozyme fitness (log ratio)” value does the source give for G10C A66C C79U here?
A: -2.72

Q: Which “polymerase ribozyme fitness (log ratio)” value does the source give for G10A C15G A16G G63A C80U G113C here?
A: -4.34

Q: Which “polymerase ribozyme fitness (log ratio)” value does the source give for G10C U106C G127A G135U here?
A: -3.46

Q: Which “polymerase ribozyme fitness (log ratio)” value does the source give for U9G U54C G69A C80U here?
A: -2.99

Q: For G10C C40U G45U, which “polymerase ribozyme fitness (log ratio)” value is on record?
A: -1.47

Q: Which “polymerase ribozyme fitness (log ratio)” value does the source give for G10U A18G A37U C40U U112A U126C here?
A: -1.57

Q: With G10U A26C A74G A90U G120A as the variant, how does the “polymerase ribozyme fitness (log ratio)” value read?
A: -5.63

Q: For G10A C13U U55A C76U C97A U116G, which “polymerase ribozyme fitness (log ratio)” value is on record?
A: -6.1

Q: For G10C A66U C97U G120U C123U, which “polymerase ribozyme fitness (log ratio)” value is on record?
A: 0.489

Q: Which “polymerase ribozyme fitness (log ratio)” value does the source give for G10A C15G C82A G93A here?
A: -4.03

Q: For G10C G48A C64U G117U U125G, which “polymerase ribozyme fitness (log ratio)” value is on record?
A: -6.03

Q: Which “polymerase ribozyme fitness (log ratio)” value does the source give for G10C C40G C56G G61A A68U G77U U112C here?
A: -6.74

Q: For G10C U87C, which “polymerase ribozyme fitness (log ratio)” value is on record?
A: -1.18

Q: For G10A C72G U96A C104U, which “polymerase ribozyme fitness (log ratio)” value is on record?
A: -0.61

Q: For G10A G51A C70U A119G, which “polymerase ribozyme fitness (log ratio)” value is on record?
A: -4.32

Q: With G10C C49A G51C G57C C72U as the variant, how does the “polymerase ribozyme fitness (log ratio)” value read?
A: -4.25

Q: Which “polymerase ribozyme fitness (log ratio)” value does the source give for G10A G122A here?
A: 0.549

Q: Which “polymerase ribozyme fitness (log ratio)” value does the source give for U9G U14A A46U A68G here?
A: -4.4

Q: For G10U C12G G17U G113A U126G, which “polymerase ribozyme fitness (log ratio)” value is on record?
A: -4.16

Q: With G10C A43G as the variant, how does the “polymerase ribozyme fitness (log ratio)” value read?
A: -3.12

Q: With G10C C11U C94G as the variant, how does the “polymerase ribozyme fitness (log ratio)” value read?
A: -0.146

Q: For G10A C56U, which “polymerase ribozyme fitness (log ratio)” value is on record?
A: 0.385

Q: With G10A G42U C49A C70G C98A U112G U130G as the variant, how does the “polymerase ribozyme fitness (log ratio)” value read?
A: -6.93

Q: With G10C U87G C115U A119G G120C U131G as the variant, how does the “polymerase ribozyme fitness (log ratio)” value read?
A: -1.59

Q: With G10A C11G C12U U96C C104U C123G U131G as the variant, how does the “polymerase ribozyme fitness (log ratio)” value read?
A: 2.08

Q: With G10U C11U C73A C88A U126C as the variant, how does the “polymerase ribozyme fitness (log ratio)” value read?
A: -2.02

Q: For G10U A50U C89G, which “polymerase ribozyme fitness (log ratio)” value is on record?
A: -2.96

Q: For G10C G110U, which “polymerase ribozyme fitness (log ratio)” value is on record?
A: -2.66

Q: With G10C G57A C88U U112G as the variant, how does the “polymerase ribozyme fitness (log ratio)” value read?
A: -3.48

Q: With G10A U38G G48C C79A as the variant, how does the “polymerase ribozyme fitness (log ratio)” value read?
A: -4.53

Q: For G10A G35A, which “polymerase ribozyme fitness (log ratio)” value is on record?
A: -3.71

Q: With G10C A50G G69U C89A A121U as the variant, how does the “polymerase ribozyme fitness (log ratio)” value read?
A: 0.925
